Type in all cases: cell-based
The target in one test is T1, glucagon receptor (Homo sapiens, UniProt P47871).
T1 construct: expressed in transfected cells; host or cells: HEK293
Kind of test: cAMP synthesis functional assay (firefly luciferase reporter in HEK293 cells), glucagon receptor. The settings on record: for EC50: read-out: Glucagon Receptor EC50. On the technique in general: Reporter assays use an easily measured gene product as a stand-in for the process of interest.

A further test has as its target T2, GLP-1 receptor (Homo sapiens, UniProt P43220).
T2 construct: expressed in transfected cells; host or cells: HEK293
The test can be described thus: cAMP synthesis functional assay (firefly luciferase reporter in HEK293 cells), GLP-1 receptor. The settings on record: for EC50: read-out: GLP-1 Receptor EC50.

The next test has as its target T3, GIP receptor (Homo sapiens, UniProt P48546).
T3 construct: expressed in transfected cells; host or cells: HEK293
T3 sequence (P48546 22-466): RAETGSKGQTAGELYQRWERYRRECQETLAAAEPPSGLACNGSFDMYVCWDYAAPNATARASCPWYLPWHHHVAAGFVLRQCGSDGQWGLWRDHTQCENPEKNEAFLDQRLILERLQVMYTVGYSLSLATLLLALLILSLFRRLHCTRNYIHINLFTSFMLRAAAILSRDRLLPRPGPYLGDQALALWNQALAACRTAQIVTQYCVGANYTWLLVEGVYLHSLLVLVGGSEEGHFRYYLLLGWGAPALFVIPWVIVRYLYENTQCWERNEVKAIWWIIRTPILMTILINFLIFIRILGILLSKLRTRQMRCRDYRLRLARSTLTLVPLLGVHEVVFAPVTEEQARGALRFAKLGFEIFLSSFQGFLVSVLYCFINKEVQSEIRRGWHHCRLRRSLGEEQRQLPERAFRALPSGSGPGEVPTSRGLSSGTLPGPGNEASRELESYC
Kind of test: cAMP synthesis functional assay (firefly luciferase reporter in HEK293 cells), GIP receptor.

In test [1] the test system is glucagon receptor, GLP-1 receptor or GIP receptor. Kind of test: Agonist profile across receptors assigned from the cAMP reporter assay data. Particulars: assigned from the in vitro EC50 data of Tables 1-4.
Setting [2] is: Table 4, relative to the native hormone.
Where [3] appears, read: Table 1, relative to the native hormone of the indicated receptor.
[4] abbreviates: read-out: GIP Receptor EC50, Table 1.
The mark [5] stands for this setting: relative to the standard (Std.) EC50 of the same run.

Where two headings read alike, the source gives them in different places. Where a SMILES comes first, the peptide text is derived from it. Bridges are numbered along the chain shown (N, C = ends). Where no end group is shown, it is not given here. Side-chain parts run from the residue outwards. [ ]: non-standard residue; d: D form. The star is where a group is joined. Ac‑Cys(PEG 40 kDa) = Cys whose alpha-amino group is acetylated and whose side chain carries a 40 kDa PEG; PEG 40 kDa = PEG (40 kDa) covalently attached to Cys; Palmitoyl = CCCCCCCCCCCCCCCC(=O)*; Nle = CCCC[C@H](N)C(=O)O; Aib = CC(C)(N)C(=O)O

T1 sequence (P47871 26-477): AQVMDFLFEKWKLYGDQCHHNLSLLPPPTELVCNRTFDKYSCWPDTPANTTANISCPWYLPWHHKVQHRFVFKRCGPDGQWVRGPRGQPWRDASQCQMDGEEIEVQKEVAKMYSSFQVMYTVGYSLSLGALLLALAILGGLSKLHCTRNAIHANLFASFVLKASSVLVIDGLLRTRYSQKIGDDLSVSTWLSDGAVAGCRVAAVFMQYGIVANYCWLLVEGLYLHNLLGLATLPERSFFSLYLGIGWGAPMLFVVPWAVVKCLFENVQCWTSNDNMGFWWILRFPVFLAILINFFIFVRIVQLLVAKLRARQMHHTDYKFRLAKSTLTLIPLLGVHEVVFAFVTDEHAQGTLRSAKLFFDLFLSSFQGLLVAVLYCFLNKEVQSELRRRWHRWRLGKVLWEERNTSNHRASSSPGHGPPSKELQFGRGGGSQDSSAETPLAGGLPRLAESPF
T2 sequence (P43220 24-463, species assumed): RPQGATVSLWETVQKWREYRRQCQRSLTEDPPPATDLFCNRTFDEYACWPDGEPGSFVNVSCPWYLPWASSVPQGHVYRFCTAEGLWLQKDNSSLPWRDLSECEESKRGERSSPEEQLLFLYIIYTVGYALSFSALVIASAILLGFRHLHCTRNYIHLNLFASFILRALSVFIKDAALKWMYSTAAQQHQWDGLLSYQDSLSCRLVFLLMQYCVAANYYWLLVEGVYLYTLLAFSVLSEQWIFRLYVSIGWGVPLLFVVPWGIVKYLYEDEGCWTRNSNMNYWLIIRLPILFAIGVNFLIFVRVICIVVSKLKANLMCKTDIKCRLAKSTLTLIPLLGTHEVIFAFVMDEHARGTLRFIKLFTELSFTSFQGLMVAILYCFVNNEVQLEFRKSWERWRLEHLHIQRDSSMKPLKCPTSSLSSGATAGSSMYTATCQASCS

As a reminder, the EC50 is the concentration needed to bring the measured effect to its halfway point. As to `CCCCCCCCCCCCCCCC(=O)NCCCC[C@H](NC(=O)[C@H](CO)NC(=O)[C@@H]1CCCN1C(=O)[C@@H]1CCCN1C(=O)[C@@H]1CCCN1C(=O)[C@H](C)NC(=O)CNC(=O)[C@H](CO)NC(=O)[C@H](CO)NC(=O)[C@@H]1CCCN1C(=O)CNC(=O)CNC(=O)[C@H](C)NC(=O)[C@H](CC(C)C)NC(=O)[C@H](CC(C)C)NC(=O)[C@H](Cc1c[nH]c2ccccc12)NC(=O)[C@H](CC(N)=O)NC(=O)[C@@H](NC(=O)[C@H](Cc1ccccc1)NC(=O)[C@H](CCC(=O)O)NC(=O)C(C)(C)NC(=O)[C@H](C)NC(=O)[C@H](C)NC(=O)[C@H](CCC(N)=O)NC(=O)[C@H](CCCCN)NC(=O)[C@H](CC(=O)O)NC(=O)[C@H](CC(C)C)NC(=O)[C@H](Cc1ccc(O)cc1)NC(=O)[C@@H](NC(=O)[C@H](CO)NC(=O)[C@H](Cc1ccc(O)cc1)NC(=O)[C@H](CC(=O)O)NC(=O)[C@H](CO)NC(=O)[C@@H](NC(=O)[C@H](Cc1ccccc1)NC(=O)[C@@H](NC(=O)CNC(=O)[C@H](CCC(N)=O)NC(=O)C(C)(C)NC(=O)[C@@H](N)Cc1ccc(O)cc1)[C@@H](C)O)[C@@H](C)CC)[C@@H](C)CC)C(C)C)C(N)=O` [mt-358] (H-Y[Aib]QGTFISDYSIYLDKQAA[Aib]EFVNWLLAGGPSSGAPPPSK(Palmitoyl)-NH2; N-terminus assumed), the “Glucagon Receptor relative activity” value at glucagon receptor (setting [2]) was 1266.00%. Moreover, on GLP-1 receptor (setting [2]), the “GLP-1 Receptor relative activity” value is given as 13.04%. The molecule also had a concentration giving a half-maximal response (EC50) at GIP receptor (GIP Receptor EC50, nM, Table 4) of 0.0045 nM. For the same molecule, the “GIP Receptor relative activity” value on GIP receptor (setting [2]) came to 305.62%.
For the molecule “Y[Aib]EGTFISDYSIAMDKIHQQDFVNWLLAQKGKKNWLKHNITQ-NH2 [mt-100]”, the “Glucagon Receptor relative activity” value at glucagon receptor (setting [3]) stood at 0.01%. Also, the “GLP-1 Receptor relative activity” value at GLP-1 receptor (setting [3]) came to 0.01%. In addition, the “GIP Receptor relative activity” value on GIP receptor (setting [3]) was 306.25%.
Turning to “Y[Aib]EGTFTSDYSIYLDEQAAKEFVNWLLAGKGKKNWLKHNITQC-NH2 (lactam 16-20) [mt-206]”, the “Glucagon Receptor relative activity” value at glucagon receptor (setting [3]) is listed as 0.01%. For the same molecule, on GLP-1 receptor (setting [3]), the “GLP-1 Receptor relative activity” value is listed as 32.63%. Also, the “GIP Receptor relative activity” value at GIP receptor (setting [3]) is recorded as 13.04%.
“mt-172: glucagon analog peptide, C-terminal amide (Y[Aib]QGTFTSDYSIYLDEQAAKEFVC(PEG 40 kDa)WLLAG-NH2; lactam 16-20)”: the “receptor activity profile (glucagon / GLP-1 / GIP agonism)” value in test [1] is reported as “exemplary GLP-1/GIP/glucagon triagonist peptides”.
The same measure, in the same setting: the value for “mt-175: glucagon analog peptide, C-terminal amide (Y[Aib]QGTFTSDYSIYLDEQAAKEFVC(PEG 40 kDa)WLLAGGPSSGAPPPS-NH2; lactam 16-20)” was “exemplary GLP-1/GIP/glucagon triagonist peptides”.
Regarding “mt-202: glucagon analog peptide, C-terminal amide (Y[Aib]QGTFVSDYSIYLDEQAAKEFVNWLLAGGPSSGAPPPSC(PEG 40 kDa)-NH2; lactam 16-20)”, the “Glucagon Receptor relative activity” value with glucagon receptor (setting [3]) was 2.84%. In addition, the EC50 turned out to be 2.36 nM with glucagon receptor (Table 1), 15.7 nM with GLP-1 receptor (Table 1) and 2.2 nM with GIP receptor (setting [4]). For the same molecule, the “GLP-1 Receptor relative activity” value in the test with GLP-1 receptor (setting [3]) is given as 0.18%. For the same molecule, the “GIP Receptor relative activity” value with GIP receptor (setting [3]) is 1.32%.
As to “mt-203: glucagon analog peptide, C-terminal amide (Y[Aib]QGTFTSDYSIYLDEQAAKEFVNWL[Nle]AGGPSSGAPPPSC(PEG 40 kDa)-NH2; lactam 16-20)”, in the test with glucagon receptor (setting [3]), the “Glucagon Receptor relative activity” value was determined as 1.38%. The figures for the EC50 with glucagon receptor (Table 1), with GLP-1 receptor (Table 1) and in the test with GIP receptor (setting [4]) were 4.84 nM, 0.14 nM and 12.2 nM, respectively. Further, the “GLP-1 Receptor relative activity” value in the test with GLP-1 receptor (setting [3]) was determined as 20.71%. The “GIP Receptor relative activity” value with GIP receptor (setting [3]) is recorded as 0.24%.
As to “mt-205: glucagon analog peptide, C-terminal amide (Y[Aib]EGTFTSDYSIYLDEQAAKEFVNWLLAGRPSSGAPPPSC(PEG 40 kDa)-NH2; lactam 16-20)”, in the test with glucagon receptor (setting [3]), the “Glucagon Receptor relative activity” value is given as 0.01%. In addition, the EC50 was found to be 672 nM with glucagon receptor (Table 1), 0.204 nM with GLP-1 receptor (Table 1) and 1.66 nM with GIP receptor (setting [4]). Also, in the test with GLP-1 receptor (setting [3]), the “GLP-1 Receptor relative activity” value is reported as 14.22%. Further, in the test with GIP receptor (setting [3]), the “GIP Receptor relative activity” value amounted to 1.74%.
On to “mt-225: pegylated monomer with lactam bridge between Glu16 and Lys20, PEG attached via dipeptide spacer (Y[Aib]QGTFTSDYSIYLDEQAAKEFVNWLLAGGPSSGAPPPSK([Ala-Ac‑Cys(PEG 40 kDa)])-NH2; lactam 16-20)”, for which, in the test with glucagon receptor (setting [2]), the “Glucagon Receptor relative activity” value is given as 1.99%. Also, the “GLP-1 Receptor relative activity” value with GLP-1 receptor (setting [2]) is listed as 29.59%. Further, in the test with GIP receptor (setting [2]), the “GIP Receptor relative activity” value was 0.90%.
The matching figures for “mt-227: pegylated monomer with lactam bridge between Glu16 and Lys20, PEG attached via dipeptide spacer (Y[Aib]QGTFTSDYSIYLDEQAAKEFVNWLLAGGPSSGAPPPSK([Arg-Ac‑Cys(PEG 40 kDa)])-NH2; lactam 16-20)”: 1.27%, 36.25% and 1.29%.
As to “mt-248: sequence of mt-170 with an AIB at position 16 in lieu of the lactam (Y[Aib]QGTFTSDYSIYLD[Aib]QAAKEFVNWLLAGGPSSGAPPPSC(PEG 40 kDa)-NH2)”, in test [1], the “receptor activity profile (glucagon / GLP-1 / GIP agonism)” value is given as “exhibited activities of glucagon/GLP-1/GIP triagonists”.
Consider “mt-281 (Y[Aib]QGTFTSDYSIYLDKQAA[Aib]EFVC(PEG 40 kDa)WLLAG-NH2)”, for which the “Glucagon Receptor relative activity” value with glucagon receptor (setting [5]) is 16.65%. In addition, the EC50 with GLP-1 receptor (cAMP luciferase reporter assay as in Example 16) stood at 0.216 nM; with GIP receptor (read-out: GIP Receptor EC50, cAMP luciferase reporter assay as in Example 16), 0.4 nM. Moreover, in the test with GLP-1 receptor (setting [5]), the “GLP-1 Receptor relative activity” value was found to be 5.13%. Moreover, in the test with GIP receptor (setting [5]), the “GIP Receptor relative activity” value came out at 6.68%.
With “mt-376: acylated PEG-linked dimer, acylation at position 40 of each monomer (YXEGTFTSDYSIYLDKQAAXEFVNWLLAGGPSSGAPPPSKC; PEG-linked dimer, acylated at position 40; Mt-376; Homodimer; Xaa is Aib; 14 Carbon fatty acyl group covelently bound to Lysine; C-terminal amidation; Cys residue covalently attached to 20 kDa PEG which is in turn covalently attached to a Cys residue of a second peptide having the same structure)”, the “Glucagon Receptor relative activity” value in the test with glucagon receptor (setting [2]) worked out at 0.57%. In the test with glucagon receptor (Table 4), the EC50 was 13.5 nM. In addition, the “GLP-1 Receptor relative activity” value with GLP-1 receptor (setting [2]) is reported as 126.82%. Also, the “GIP Receptor relative activity” value with GIP receptor (setting [2]) is 62.63%.
The matching figures for “mt-377: acylated PEG-linked dimer, acylation at position 40 of each monomer (YXEGTFTSDYSIYLDKQAAXEFVNWLLAGGPSSGAPPPSKC; PEG-linked dimer, acylated at position 40; Mt-377; homodimer; Xaa is Aib; 14 Carbon fatty acyl group covalently bound to Lysine; PEG (5kDa) covalently bound to Cysteine; C-terminal amidation; Cys residue covalently attached to 5 kDa PEG which is in turn covalently attached to a Cys residue of a second peptide having the same structure)”: 1.98%, 3.9 nM, 177.88% and 138.11%.

Source of the values: patent US9062124B2, “GIP-based mixed agonists for treatment of metabolic disorders and obesity” (priority 2008, dated 2015).
